Source: patent CN117820472A (VAZYME MEDICAL CO LTD; HUNAN NOVAZYME MEDICAL TECH CO LTD, dated 2024)
Ends that are not written are not given here.

Molecular target: T1, Tau 181多肽 (also: biotin coupling for SA coating, place not given here)
T1 peptide: CPPAPKTPP
Experiment: indirect ELISA, cell supernatants on SA+biotin peptide plates (m1 as a member of the 80 antibodies)

B1: Anti-p-Tau 181-rRmab-1 (antibody, V domains shown)
VH: CQSVEESGGRLVTPGTPLTLTCTVSGFSLSIYAMSWVRQAPGKGLEYIGYIVSSGSTYYASWAKGRVTISKTSSTTVDLKITSPATEDTATYFCARGSITGFTRLELWGQGTLVTVSS
VL: DIVMTQTPASVEAAVGGTVTIKCQASESISSGLAWYQQKPGQPPKLLIYGASTLASGVPSRFKGSRSGTEYTLTISDLECADAATYYCQSYYYSSGSSLLYGFGGGTEVVVK
notes: Recombinant rabbit monoclonal antibody from single B cell cloning, expressed in HEK293 cells and purified on protein A. Only the variable domains are printed
B1: no binding.
